We go through five molecules from article PMC4722173, “Identification of the Elusive Pyruvate Reductase of Chlamydomonas reinhardtii Chloroplasts” (Plant and Cell Physiology, 2015).

Data set [1] addresses T1, His-tagged Cr-LDH1 (Chlamydomonas reinhardtii, UniProt B0LUZ5).
T1 construct: residues 45-421, putative 44-residue chloroplast transit peptide removed, C-terminal His tag kept, codon-optimized synthetic gene, pET28b, E. coli KRX; 40 kDa, tetramer (about 200 kDa)
T1 sequence (B0LUZ5 45-421): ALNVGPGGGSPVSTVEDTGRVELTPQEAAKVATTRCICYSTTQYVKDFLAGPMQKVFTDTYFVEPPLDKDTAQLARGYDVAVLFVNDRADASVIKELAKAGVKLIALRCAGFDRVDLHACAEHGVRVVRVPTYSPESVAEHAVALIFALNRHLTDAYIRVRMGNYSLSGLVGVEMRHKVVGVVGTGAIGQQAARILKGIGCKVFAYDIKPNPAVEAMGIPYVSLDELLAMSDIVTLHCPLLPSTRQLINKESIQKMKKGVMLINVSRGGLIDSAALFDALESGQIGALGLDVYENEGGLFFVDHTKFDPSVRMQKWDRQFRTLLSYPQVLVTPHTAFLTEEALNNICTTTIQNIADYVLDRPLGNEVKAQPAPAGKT
The experiment in a line: X-ray crystallography, […] Å. Conditions: 300 µM NAD+ in protein solution before crystallization; active site of each monomer, near H378, R311, E340. The class given is binding.

The target in data set [2] is T1, His-tagged Cr-LDH1. Put plainly: spectrophotometric NADH oxidation at […] nm. It is filed as biochemical. As to conditions: 300 µM NADH with pyruvate; pH 7.5; 25 °C; mere turnover.
The target of data set [3] is PFL1 (pyruvate formate lyase), endogenous, in Chlamydomonas reinhardtii whole-cell extract (Chlamydomonas reinhardtii (endogenous in whole-cell extract)). Put plainly: native gel or EMSA; 1D BN-PAGE of C. reinhardtii whole-cell extracts, immunoblot with Cr-LDH1 or PFL1 antibodies. A general note: A gel shift assay detects complexes by their altered migration in electrophoresis.

The target of data set [4] is His-tagged recombinant Cr-LDH1 (NAD+-dependent D-lactate dehydrogenase encoded by Cre07.g324550), residues 45-421 (Chlamydomonas reinhardtii). Put plainly: crystal structure; sitting drop, approximately 14.5 mg/ml protein with 300 µM NAD+, 20% PEG 3350, 200 mM potassium nitrate; 2.46 Å; tetramer as predicted by PISA.
Substrate in data set [5]: O=CC(=O)O
Put plainly: purified protein. It is filed as biochemical, Chlamydomonas reinhardtii. As to conditions: 300 µM NADH, 25 mM sodium phosphate, 250 mM NaCl, pH 7.5, 25 °C.

Substrate in data set [6]: CC(=O)C(=O)O
Put plainly: purified protein. The class given is biochemical, Chlamydomonas reinhardtii. As to conditions: 300 µM NADH, 25 mM sodium phosphate, 250 mM NaCl, pH 7.5, 25 °C, mean ± SD of two protein preparations.

Substrate in data set [7]: C[C@@H](O)C(=O)O
Put plainly: purified protein. As to conditions: 300 µM NAD+, 25 mM sodium phosphate, 250 mM NaCl, pH 7.5, 25 °C.

Turning to `NC(=O)c1ccc[n+]([C@@H]2O[C@H](COP(=O)(O)OP(=O)(O)OC[C@H]3O[C@@H](n4cnc5c(N)ncnc54)[C@H](O)[C@@H]3O)[C@@H](O)[C@H]2O)c1` [NAD^+], the “X-ray crystallography, 2.46 Å” value at His-tagged Cr-LDH1 [1] is given as “NAD^+ molecules added during crystallization were observed in the active site of each monomer”.

Consider `NC(=O)C1=CN([C@@H]2O[C@H](COP(=O)(O)OP(=O)(O)OC[C@H]3O[C@@H](n4cnc5c(N)ncnc54)[C@H](O)[C@@H]3O)[C@@H](O)[C@H]2O)C=CC1` [NADH], for which the “spectrophotometric NADH oxidation at 340 nm” value on His-tagged Cr-LDH1 [2] was “preference for the reduction of pyruvate to D-lactate and a specificity for NADH”.

A word on the stoichiometry N: it is the number of molecules, sites or subunits per partner or assembly. In the case of “PFL1 (pyruvate formate lyase), endogenous, in Chlamydomonas reinhardtii whole-cell extract (enzyme)”, the stoichiometry N in data set [3] stood at 2.

In the case of “His-tagged recombinant Cr-LDH1 (NAD+-dependent D-lactate dehydrogenase encoded by Cre07.g324550), residues 45-421 (enzyme)”, the stoichiometry N in data set [4] was 4.

B1: His-tagged Cr-LDH1 (Chlamydomonas reinhardtii) (protein)
chain: T1 sequence (B0LUZ5 45-421)
notes: residues 45-421, putative 44-residue chloroplast transit peptide removed, C-terminal His tag kept, codon-optimized synthetic gene, pET28b, E. coli KRX; 40 kDa, tetramer (about 200 kDa)
By Km is commonly meant the concentration of substrate that gives half-maximal velocity. A word on the kcat: it is the maximal rate divided by the concentration of active sites. As usually defined, the kcat/Km is the turnover number divided by the Michaelis constant. On to B1, for which, in “purified protein [5]”, the Km amounted to 62 mM, the kcat stood at 60 s⁻¹ and the specificity constant (kcat/Km) worked out at 1000 M⁻¹ s⁻¹. In addition, in the data set “purified protein [6]”, the Michaelis-Menten constant (Km) stood at 1.46 ± 0.01 mM, the catalytic constant (kcat) was found to be 370 ± 2 s⁻¹ and the specificity constant (kcat/Km) amounted to 255000 ± 7000 M⁻¹ s⁻¹. Further, in “purified protein [7]”, the Michaelis constant (Km) is on record as 70 mM, the kcat was determined as 10 s⁻¹ and the kcat/Km worked out at 150 M⁻¹ s⁻¹.
